Test results: patent publication US20180055925A1 (UNITED STATES OF AMERICA AS REPRESENTED BY THE SECRETARY …, published 2018)

Molecular target: T1, SpoIVA^AF488 (His6-tagged cysteine-less SpoIVA variant, C98S, with a single engineered N-terminal cysteine, … (Bacillus subtilis, UniProt P35149 1-492, Alexa Fluor 488 C5-maleimide on the single engineered cysteine at the N-terminus (second residue)))
T1 construct: SpoIVA polymerizes in the presence of ATP; also called SpoIVA^A488
T1 sequence: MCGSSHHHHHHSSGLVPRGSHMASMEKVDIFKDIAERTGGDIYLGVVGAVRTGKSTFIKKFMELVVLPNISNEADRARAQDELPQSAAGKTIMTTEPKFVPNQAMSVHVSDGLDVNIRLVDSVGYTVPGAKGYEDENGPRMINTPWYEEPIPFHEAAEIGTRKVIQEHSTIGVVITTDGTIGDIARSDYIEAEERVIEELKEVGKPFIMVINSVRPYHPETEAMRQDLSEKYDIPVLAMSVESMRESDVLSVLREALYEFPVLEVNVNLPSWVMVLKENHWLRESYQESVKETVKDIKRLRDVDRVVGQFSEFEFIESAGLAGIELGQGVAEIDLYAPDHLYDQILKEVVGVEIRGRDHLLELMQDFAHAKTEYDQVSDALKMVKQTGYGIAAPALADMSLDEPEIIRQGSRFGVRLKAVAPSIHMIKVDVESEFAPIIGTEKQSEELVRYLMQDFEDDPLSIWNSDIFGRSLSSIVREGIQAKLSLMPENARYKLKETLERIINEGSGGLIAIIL
Assay: fluorescence microscopy of SpoVM-coated SSLBs incubated with increasing SpoIVA^AF488
Method: SpoVM-coated SSLBs were collected by centrifugation at 13,000×g for 1 minute, and then were incubated with varying concentrations of SpoIVA^AF488 in a final volume of 100 μL buffer A containing 10 mM MgCl₂ and 4 mM ATP, overnight at room temperature with gentle inversion. SSHEL particles were collected by centrifugation and resuspended in 100 μL buffer A for microscopy. For competition assays, SpoVM-SSLBs were incubated with 0.006 μM SpoIVA^A488 in the presence or absence of 4 mM ATP in buffer A containing 10 mM MgCl₂. The fluorescent SSLBs were collected by centrifugation, and resuspended with 100 μL buffer A containing 5 μM unlabeled SpoIVA. 5 μL aliquots were taken at indicated time points for microscopy.
To test this model of basement layer assembly in vitro, spherical supported lipid bilayers (SSLBs) were constructed by coating 2 μm-diameter silica beads with a phospholipid bilayer (Bayerl and Bloom, Biophys J 58, 357-362 (1990) and Gopalakrishnan and Rouiller, Langmuir 25, 5455-5458 (2009)) to mimic the surface of the forespore. […] The SpoVM-coated SSLBs were then incubated with increasing concentrations of SpoIVA^AF488 and measured its adsorption using fluorescence microscopy (FIG. 1C). […] At higher concentrations of SpoIVA^AF488 the heterogeneity in fluorescence between SSLBs was reduced and SpoIVA^AF488 adsorption approached saturation (FIG. 1C, 1E).

B1: SpoVM (synthesized 26 amino acid peptide, adsorbed on spherical supported lipid bilayers) (peptide)
peptide: MKFYTIKLPKFLGGIVRAMLGSFRKD
notes: also called SpoVM peptide; SpoVM-coated SSLBs
binding result: binds
